Experimental data from patent US20150037339A1 (Regeneron, published 2015).
Where a chain is given by its changes, count along the chain named.

B1: H4H10423P (antibody, human IgG4, V domains shown)
VH: QVQLQQSGPGLLKPSQTLSLTCAISGDSVSSNSAAWSWIRQSPSRGLEWLGRTYYRANWFNDYALSVKSRITINPVTSTNHFSLQLHSVTPEDTAVYYCAREGALGYYFDSWGQGTLVTVSS
VL: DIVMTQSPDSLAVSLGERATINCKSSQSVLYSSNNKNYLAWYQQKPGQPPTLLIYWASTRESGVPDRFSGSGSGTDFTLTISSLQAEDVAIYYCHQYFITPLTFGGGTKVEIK
B2: H4H10442P2 (antibody, human IgG4, V domains shown)
VH: QVQLQESGPGLVKPSETLSITCTVSGGSFSSHFWTWIRQPPGKGLEWIGYLHYSGGTSYNPSLKSRVIISVDTSKNQFSLKLNSVTAADTAVYYCARARSGITFGGLIVPGSFDIWGQGTMVTVSS
VL: not shown
B3: H4H10468P2 (antibody, human IgG4, V domains shown)
VH: B2 VH with I20L, T35S, L51I, H52Y, S58H, K64E, I68T
VL: not shown
B4: H4H10446P2 (antibody, human IgG4, V domains shown)
VH: QVQLQESGPGLVKPSETLSLTCTVSGGSFSSHFWSWIRQPPGKGLEWIGYILYTGGTSFNPSLKSRVSMSVGTSKNQFSLKLSSVTAADTAVYYCARARSGITFTGIIVPGSFDIWGQGTMVTVSS
VL: not shown
notes: also called H4H20446

Molecular target: T1, Activin A (human, UniProt P08476 311-426)
T1 construct: Homodimer of two βA subunits; bought from R&D Systems (#338-AC); also called inhibin-βA dimer; human Activin A
T1 sequence: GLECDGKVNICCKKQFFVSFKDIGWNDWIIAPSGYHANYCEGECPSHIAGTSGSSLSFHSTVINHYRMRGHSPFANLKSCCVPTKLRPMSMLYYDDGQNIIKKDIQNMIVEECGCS
Assay: Octet cross-competition; binder on anti-hFc tip; 50 nM hActivin A pre-bound with 1 uM Control 1 (col 10); white box
Procedure: (§1) No. 8,309,082) and Control 3 (MAB3381, available from R&D Systems, Inc., Minneapolis, Minn.) were also included in the assays. All assays were performed at 25° C. with a microtiter plate shaking rate of 1000 rpm in Octet HBST buffer (0.01 M HEPES pH7.4, 0.15M NaCl, 3 mM EDTA, 0.05% v/v Surfactant P20, 0.1 mg/mL BSA) according to manufacturer's instructions (ForteBio Corp., Menlo Park, Calif.). […] Any remaining anti-hFc binding sites on the tips were blocked by incubating the tips in a 50 ug/mL solution of irrelevant antibody for 5 minutes.

In order of falling binding response:
1. B3  1.08
2. B2  0.99
3. B4  0.83
4. B1  0.6

Molecular target: T1, Activin A
Assay: Octet cross-competition; binder on anti-hFc tip; 50 nM hActivin A pre-bound with 1 uM H4H10430P (col 5); white box
Procedure: as §1

In order of rising binding response:
1. B2  1.33
2. B4  1.39
3. B3  1.41

Molecular target: T1, Activin A
Assay: Octet cross-competition; binder on anti-hFc tip; 50 nM hActivin A pre-bound with 1 uM H4H10432P2 (col 7); white box
Procedure: as §1

In order of falling binding response:
1. B3  1.73
2. B4  1.68
3. B2  1.59
4. B1  1.32

Molecular target: T1, Activin A
Assay: Octet cross-competition; binder on anti-hFc tip; 50 nM hActivin A pre-bound with 1 uM Control 3 (col 11); white box
Procedure: as §1

In order of rising binding response:
1. B1  0.79
2. B3  0.79
3. B2  0.99
4. B4  1.21

Molecular target: T1, Activin A
Assay: Octet cross-competition; binder on anti-hFc tip; 50 nM hActivin A pre-bound with 1 uM H4H10430P (col 5); black box
Procedure: as §1

B1 gave a binding response of 0.28.

Molecular target: T1, Activin A
Assay: Octet cross-competition; binder on anti-hFc tip; 50 nM hActivin A pre-bound with 1 uM H4H10423P (col 4); black box
Procedure: as §1

In order of falling binding response:
1. B3  0.41
2. B4  0.33
3. B2  0.27

Molecular target: T1, Activin A
Assay: Octet cross-competition; binder on anti-hFc tip; 50 nM hActivin A pre-bound with 1 uM H4H10442P2 (col 3); black box
Procedure: as §1

In order of rising binding response:
1. B4  0.39
2. B3  0.4
3. B1  0.59

Molecular target: T1, Activin A
Assay: Octet cross-competition; binder on anti-hFc tip; 50 nM hActivin A pre-bound with 1 uM H4H10446P2 (col 1); black box
Procedure: as §1

In order of falling binding response:
1. B1  0.51
2. B2  0.35
3. B3  0.33

Molecular target: T1, Activin A
Assay: Octet cross-competition; binder on anti-hFc tip; 50 nM hActivin A pre-bound with 1 uM H4H10429P (col 6); white box
Procedure: as §1

In order of falling binding response:
1. B3  1.68
2. B4  1.61
3. B2  1.55
4. B1  1.48

Molecular target: T1, Activin A
Assay: SPR, captured mAb, 37C
Summary of the method: (§2)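 240 s association, 600 s buffer dissociation; ka, kd fitted; KD (M) = kd/ka; t1/2 (min) = ln2/(60*kd).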

In order of falling “Activin A-20 nM (RU)” value:
1. B2  40.5 RU
2. B4  31.5 RU
3. B1  25.2 RU
4. B3  24.5 RU

B1 and B2 cannot be ordered by Kd: no more than 12.6 pM for the first, no more than 3.48 pM for the second.

B3 and B4 cannot be ordered by Kd: no more than 4.1 pM for the first, no more than 3.25 pM for the second.

In order of rising kon:
1. B1  3.95e+06 M⁻¹ s⁻¹
2. B3  1.22e+07 M⁻¹ s⁻¹
3. B2  1.44e+07 M⁻¹ s⁻¹
4. B4  1.54e+07 M⁻¹ s⁻¹

B1 and B2 cannot be ordered by t1/2: no less than 3.85 h for the first, no less than 3.85 h for the second.

B3 and B4 cannot be ordered by t1/2: no less than 3.85 h for the first, no less than 3.85 h for the second.

Molecular target: T2, Activin B (human, UniProt P09529 293-407)
T2 construct: Homodimer of two βB subunits; R&D Systems #659-AB
T2 chain: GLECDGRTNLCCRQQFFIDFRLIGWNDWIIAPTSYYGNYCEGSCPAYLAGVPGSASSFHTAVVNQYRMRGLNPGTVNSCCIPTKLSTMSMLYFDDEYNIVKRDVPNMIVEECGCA
Assay: SPR, captured mAb, 37C
Summary of the method: as §2

In order of falling “50 nM Ag Bound (RU)” value:
1. B2  4.4 RU
2. B4  3.8 RU
3. B3  3.4 RU

B3: no binding (tested: 50 nM).
B4: no binding (tested: 50 nM).

Molecular target: T1, Activin A
Assay: SPR, captured mAb, 37C; no dissociation observed, kd fixed
Summary of the method: as §2

B1 and B2 cannot be ordered by koff: no more than 5e-05 s⁻¹ for the first, no more than 5e-05 s⁻¹ for the second.

B3 and B4 cannot be ordered by koff: no more than 5e-05 s⁻¹ for the first, no more than 5e-05 s⁻¹ for the second.

Molecular target: T1, Activin A
Assay: Octet cross-competition; binder on anti-hFc tip; 50 nM hActivin A pre-bound with 1 uM H4H10440P2 (col 9); white box
Procedure: as §1

In order of falling binding response:
1. B3  1.7
2. B4  1.67
3. B2  1.5
4. B1  1.31

Molecular target: T2, Activin B
Assay: SPR, captured mAb, 25C; 25 C
Procedure: (§3) Antibody-antigen association was monitored for 240 seconds while dissociation in buffer was monitored for 600 seconds. Kinetic association and dissociation rate constants were determined by processing and fitting the data using Scrubber software version 2.0c. Binding equilibrium dissociation constants (KD) and dissociative half-lives (t_{1/2}) were then calculated from the kinetic rate constants as: KD (M)=kd/kₐ and t_{1/2} (min)=[ln 2/(60*kd)]. (NB=no binding observed under the conditions used; NT=not tested).

B1 gave a Kd of 61800 pM.

B1 was tested, and the koff was 0.0302 s⁻¹.

In the case of B1, the kon is reported as 489000 M⁻¹ s⁻¹.

B1 was tested, and the t1/2 was 24 s.

Molecular target: T1, Activin A
Assay: Octet cross-competition; binder on anti-hFc tip; 50 nM hActivin A mixed with 1 uM Isotype control 13 (-) (col 13); dark grey box
Summary of the method: (§4)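 After antibody capture, tips were incubated 5 minutes in 50 ug/mL of an unrelated antibody to occupy leftover anti-hFc sites. All steps were done at 25° C, shaking at 1000 rpm, in HEPES-buffered saline pH7.4 containing 3 mM EDTA, 0.05% P20 and 0.1 mg/mL BSA.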

In order of falling binding response:
1. B3  0.28
2. B1  0.26
3. B2  0.26
4. B4  0.26

Molecular target: T1, Activin A
Assay: Octet cross-competition; binder on anti-hFc tip; 50 nM hActivin A pre-bound with 1 uM H4H10436P2 (col 8); white box
Procedure: as §1

In order of rising binding response:
1. B2  1.44
2. B1  1.49
3. B4  1.61
4. B3  1.66

Molecular target: T1, Activin A
Assay: SPR, captured mAb, 25C
Summary of the method: as §2

In order of falling “Activin A-20 nM (RU)” value:
1. B2  31.3 RU
2. B4  24.1 RU
3. B3  21.7 RU
4. B1  19.4 RU

First: B1
Second: B2
The Kd of the first is higher: 32.6 pM for the first, no more than 4.55 pM for the second. The second binds more tightly here.

B3 and B4 cannot be ordered by Kd: no more than 6.36 pM for the first, no more than 3.88 pM for the second.

B1 was tested, and the koff was 0.000109 s⁻¹.

In order of rising kon:
1. B1  3.33e+06 M⁻¹ s⁻¹
2. B3  7.86e+06 M⁻¹ s⁻¹
3. B2  1.1e+07 M⁻¹ s⁻¹
4. B4  1.29e+07 M⁻¹ s⁻¹

First: B1
Second: B2
The t1/2 of the first is lower: 1.77 h for the first, no less than 3.85 h for the second.

B3 and B4 cannot be ordered by t1/2: no less than 3.85 h for the first, no less than 3.85 h for the second.

Molecular target: T2, Activin B
Assay: SPR, captured mAb, 25C
Summary of the method: as §2

In order of falling “50 nM Ag Bound (RU)” value:
1. B3  6.2 RU
2. B4  3.6 RU
3. B2  3.4 RU

B2: no binding (tested: 50 nM).

Molecular target: T1, Activin A
Assay: Octet cross-competition; binder on anti-hFc tip; 50 nM hActivin A pre-bound with 1 uM H4H10468P2 (col 2); black box
Procedure: as §1

In order of rising binding response:
1. B2  0.36
2. B4  0.36
3. B1  0.58

Molecular target: T1, Activin A
Assay: SPR, captured mAb, 25C; no dissociation observed, kd fixed
Procedure: as §3

B2 and B3 cannot be ordered by koff: no more than 5e-05 s⁻¹ for the first, no more than 5e-05 s⁻¹ for the second.

With B4 the koff was no more than 5e-05 s⁻¹.

Molecular target: T1, Activin A
Assay: Octet cross-competition; binder on anti-hFc tip; 50 nM hActivin A mixed with 1 uM Isotype control 12 (-) (col 12); dark grey box
Summary of the method: as §4

In order of falling binding response:
1. B4  0.47
2. B2  0.46
3. B3  0.41
4. B1  0.39
